These results are taken from publication PMC7273913.

The test deals with Xenopus laevis FANCD2, 6xHis-tagged (Xenopus laevis).

B1: Human FANCL URD-RING (109–375) hydrophobic patch mutant L248A, F252A, L254A, I265A (domain or fragment)
chain: QFYSSLIEEIGTLGWDKLVYADTCFSTIKLKAEDASGREHLITLKLKAKYPAESPDYFVDFPVPFCASWTPQSSLISIYSQFLAAIESLKAFWDVMDEIDEKTWVLEPEKPPRSATARRIALGNNVSINIEVDPRHPTMAPECAFAGADHVVKPLGAKLSRNIHLWDPENSVLQNLKDVLEIDFPARAILEKSDFTMDCGICYAYQLDGTIPDQVCDNSQCGQPFHQICLYEWLRGLLTSRQSFNIIFGECPYCSKPITLKMSGRKH
As for B1, the in vitro FANCD2 monoubiquitination (Ube1, Ube2T, FANCL URD-RING, fluorescently labelled ubiquitin, 10 min at 30°C), against WT FANCL is 47 % of WT.
